According to the nanobody polyreactivity screen of Harvey et al. (2022):

Assay: yeast display, Sf9 membrane polyspecificity reagent, FACS + sequencing; frameworks hold sequencing errors
Procedure, shortened: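 Synthetic nanobody libraries on Saccharomyces cerevisiae BJ5465 were galactose-induced for 36–48 hours, stained 1 hour at 4 °C with 10% biotinylated, detergent-solubilized Sf9 membrane reagent and enriched on streptavidin microbeads. FACS then separated cells into low and high (top ~1%) gates by anti-HA (expression) and streptavidin (reagent binding) fluorescence. Genes were colony-PCR amplified, MiSeq 2 × 250 sequenced and CDR-length filtered. A clone's polyreactivity label is that of its gate of origin.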
With “QVQLVESGGGLVQAGGSLRLSCAASGFTFRVYAMGWYRHAPGKERELVAAITKRGGSTYYADSVKGRFTISRDNAKNTVYLQMNSLKPEDTAVYYCAAVNVRHFSYWGQGTQVTVSS” the “polyreactivity (PSR sort gate)” value was “high polyreactivity”.
With “QVQLVESGGGLVQAGGSLRLSCAASGFTFRVYAMGWYRQAPGKERELVAAISKSGGSTYYADSVKGRFTISRDNAKNTVYLQMNSLKPEDTAVYYCAKVSQVRGFYYWGQGTQVTVSS” the “polyreactivity (PSR sort gate)” value was “high polyreactivity”.
For “QVQLVESGGGLVQAGGSLRLSCAASGFTFRVYAMGWYRQAPGKERELVAAISSGGSTNYADSVKGRFTISRDNAKNTVYLQMNSLKPEDTAVYYCAARTYRWYGPGSYGYWGQGTQVTVSS”, the “polyreactivity (PSR sort gate)” value was “high polyreactivity”.
With “QVQLVESGGGLVQAGGSLRLSCAASGFTFRVYAMGWYRQAPGKERELVAAITKRGGSTYYADSVRGRFTISRDNAKNTVYLQMNSLKPEDTAVYYCATENTPHYASHGYWGQGTQVTVSS” the “polyreactivity (PSR sort gate)” value was “high polyreactivity”.
For “QVQLVESGGGLVQAGGSLRLSCAASGFTFRWYAMGWYRQAPGKERELVAAITYRGGRTYYADSVKGRFTISRDNAKNTVYLQMNSLKPEDTAVYYCAAKLSLNGRYDYWGQGTQVNVSS”, the “polyreactivity (PSR sort gate)” value was “high polyreactivity”.
In the case of “QVQLVESGGGLVQAGGSLRLSCAASGFTFRWYAMRWYRQAPGKERELVADITRSGDTNYAYSVKGRFTISRDNAKNTVYLQMKSQKPEDTAVYSCAKDWAYRRHWVGFYYWGQGTQVTVSA”, the “polyreactivity (PSR sort gate)” value is reported as “low polyreactivity”.
For “QVQLVESGGGLVQAGGSLRLSCAASGFTFRWYTMGWYRQAPGKERELVASIDWSGGSTYYADSVKGRFTITRDNAKNTVYLQMNSLKAEDTAVYYCNAGSDIFWSASTYGYWGQGTQVTVSS”, the “polyreactivity (PSR sort gate)” value was “high polyreactivity”.
With “QVQLVESGGGLVQAGGSLRLSCAASGFTFRYNAMGWYRQAPGKERELVAAISRSGGRTYYADSVKGRFTISRDNAKNTVYLQMNSLKPEDTAVYYCAAVAARITGYGYWGQGTQVTVSS” the “polyreactivity (PSR sort gate)” value was “high polyreactivity”.
For “QVQLVESGGGLVQAGGSLRLSCAASGFTFRYYAMGWYRQAPGKERELVAAIRRGGTTNYADSVKGRFTISRDNAKNTVYLQMKSLKPEDTAVYYCNAGRGYSVWASIYNSRPFDYWGQGTQVTVSS”, the “polyreactivity (PSR sort gate)” value was “high polyreactivity”.
In the case of “QVQLVESGGGLVQAGGSLRLSCAASGFTFRYYAMGWYRQAPGKERELVAAISSGGRTNYADSVKGRFTISRDNAKNTVYLQMNSLKPEDTAVYYCAKAQYYYIGDYDYWGQGTQVTVSS”, the “polyreactivity (PSR sort gate)” value is reported as “high polyreactivity”.
With “QVQLVESGGGLVQAGGSLRLSCAASGFTFRYYAMGWYRQAPGKERELVAGISWRGGSTNYADSVKGRFTISRDNAKNTVYLQMNSLKPEDTAVYYCNAVSYSFPIHRVRPTWYDYWGQGTQVTVSS” the “polyreactivity (PSR sort gate)” value was “high polyreactivity”.
With “QVQLVESGGGLVQAGGSLRLSCAASGFTFRYYAMGWYRQAPGKVRELVASITGGGRTYYADSVKGRFTISRDNAKNTVYLQMNSLKPEDTAVYYCATLVAYRLGSGYDSWGQGTQVTVSS” the “polyreactivity (PSR sort gate)” value was “high polyreactivity”.
For “QVQLVESGGGLVQAGGSLRLSCAASGFTFRYYSMGWYRQAPGKERELVAAISSGGSTKYADSVKGRFTISRDNAKNTVYLQMNSLKPEDTAVYYCAARVVDGAQPRYVVIINTRYYWGQGTQVTVSS”, the “polyreactivity (PSR sort gate)” value was “high polyreactivity”.
For “QVQLVESGGGLVQAGGSLRLSCAASGFTFRYYVMGWYRQAPGKEGELVAAISWSGGTTYYADSVKGRFTISRDNAKNTVYLQMNSLKPEDTAVYYCAADVYLNRRQRMYFWGQGSQVTVSS”, the “polyreactivity (PSR sort gate)” value was “high polyreactivity”.
In the case of “QVQLVESGGGLVQAGGSLRLSCAASGFTFSAYAMGWYRQAPGKERELVAAIRSSDITYYADSVKGRFTISRDNAKNTVYLQMNSLKPEDTAVYYCAADLGDYYLYYDYEYWGQGTQVTVSS”, the “polyreactivity (PSR sort gate)” value is reported as “high polyreactivity”.
In the case of “QVQLVESGGGLVQAGGSLRLSCAASGFTFSAYAMGWYRQAPGKERELVAAISRRGGSTYYADSVKGRFTISRDTAKNTVYLQMNSVKPEDTAVYYCATDYPPGYDYWGQGTQVSVSS”, the “polyreactivity (PSR sort gate)” value is reported as “high polyreactivity”.
In the case of “QVQLVESGGGLVQAGGSLRLSCAASGFTFSAYAMGWYRQAPGKERELVAAITLRGGSTYYADSVKGRFTISRDNAKNTVYLQMNSLKPEDTAVYYCNADRWTRTEEEVDYWGQGTQVTVSS”, the “polyreactivity (PSR sort gate)” value is reported as “low polyreactivity”.
With “QVQLVESGGGLVQAGGSLRLSCAASGFTFSAYTMGWYRKAPGKERELVAAISWGGGSTFYADSVKGRFTISRDNAKNTVYLQMNSLKPEDTAVYYCNKQYVHPYDYWGQGTQVTLSS” the “polyreactivity (PSR sort gate)” value was “high polyreactivity”.
In the case of “QVQLVESGGGLVQAGGSLRLSCAASGFTFSDYVMGWYRQAPGKERELVAVITSGSSTYYADSVKGRFTISRDNAKNTVYLQMNSLKPEDTAVYYCNADPDDGYFSDFDYWGQGTQVTVSS”, the “polyreactivity (PSR sort gate)” value is reported as “low polyreactivity”.
For “QVQLVESGGGLVQAGGSLRLSCAASGFTFSEYVMGWYRQAPGKERELVAVITSGSSTYYADSVKGRFTISRDNAKNTVYLQMNSLTPEDTAVYYCAAESYFFSPRTREKFDYWGQGTQVTVSA”, the “polyreactivity (PSR sort gate)” value was “low polyreactivity”.
In the case of “QVQLVESGGGLVQAGGSLRLSCAASGFTFSFYAIGLYRQATVKEREVVAAISWSGGSTYYADSVKGRFTISRDNAKNTVYLQMNSLKPEDTAVYFCAAKLLYGGRNGYWGQGTQVTVSS”, the “polyreactivity (PSR sort gate)” value is reported as “high polyreactivity”.
With “QVQLVESGGGLVQAGGSLRLSCAASGFTFSFYAMGWYRQAPGKERELVAAIDRSGGSTYYADSVKGRFTISRDNAKNTVYLQMNSLKPEDTAVYYCAATVFYGYYYWGQGTQVTVSS” the “polyreactivity (PSR sort gate)” value was “high polyreactivity”.
In the case of “QVQLVESGGGLVQAGGSLRLSCAASGFTFSFYAMGWYRQAPGKERELVAAITSRGTSTYYADSVKGRFTISRDNAKNTVYLQMNSLKPEDTEVYYCAKLLPRGQWPYDYWGQGTQVTVSS”, the “polyreactivity (PSR sort gate)” value is reported as “high polyreactivity”.
With “QVQLVESGGGLVQAGGSLRLSCAASGFTFSHNAMGWSRQAPGKERELVAGINGSGGSTYYADSVKGRFTISRDNAKNTFYLQMNSLKPEDTAVYYCSKDGSNRLALPAWDYNYWGQGTQVTVSS” the “polyreactivity (PSR sort gate)” value was “low polyreactivity”.
For “QVQLVESGGGLVQAGGSLRLSCAASGFTFSHYAMGLSRQAPGKERELVAAITWSGGSTYYADSVKGRFTISRDNAKNTVYLQMKSLKPEDTAVYYCIALVIARNIEMDYWGQGTQVTVSS”, the “polyreactivity (PSR sort gate)” value was “high polyreactivity”.
For “QVQLVESGGGLVQAGGSLRLSCAASGFTFSHYAMGWYRQAPGKEMELVAAITWSGGSTYYADSVKGRFTISRDNAKNTVYLQMNSLKPEDTAVYYCAAESYLDGGDYWGQGTQVTVSS”, the “polyreactivity (PSR sort gate)” value was “high polyreactivity”.
With “QVQLVESGGGLVQAGGSLRLSCAASGFTFSKYAMGLYRQAPGKERELVAAITRRGSSTYYADSVKGRFTLSRDNAKNTVYLQMNSLKPEDTAVYYCNAPRPNGYLGEDNYWGQGTKVTVSS” the “polyreactivity (PSR sort gate)” value was “high polyreactivity”.
With “QVQLVESGGGLVQAGGSLRLSCAASGFTFSKYAMGWYRQAPGKERELVAAISRSAGSTYYADSVKGRFTISRDNAKNTVYLQMNSLKPEDNAVYYCARDNPRSPSGYNYWGQGSQVTVSS” the “polyreactivity (PSR sort gate)” value was “high polyreactivity”.
In the case of “QVQLVESGGGLVQAGGSLRLSCAASGFTFSKYAMGWYRQAPGKERELVAAITRRGSSTYYADSVKGRFTISRDNAKNTVYLQMNSLKPEDTAVYYCNAPRPNGYLGEDNYWGQGTQVTVSS”, the “polyreactivity (PSR sort gate)” value is reported as “high polyreactivity”.
In the case of “QVQLVESGGGLVQAGGSLRLSCAASGFTFSKYAMGWYRQAPGKERELVASIDDGGSTNYADSVKGRFTISRDNAKNTVYLQKNSLKPEDTAVYYCNASYPTGYWYYVIVQYDYWGQGTQVTVSS”, the “polyreactivity (PSR sort gate)” value is reported as “low polyreactivity”.
For “QVQLVESGGGLVQAGGSLRLSCAASGFTFSKYAMGWYRQAPVKERELVATITRGGNTYYADSVKGRFTISRDNAKNTVYLQMNSLKPEDTAVYYCNTGRRNRLYDYDYWGQVTQVTVSS”, the “polyreactivity (PSR sort gate)” value was “high polyreactivity”.
With “QVQLVESGGGLVQAGGSLRLSCAASGFTFSKYTMGWYRQAPGKERELVAAITSGGSTYYADSVKGRFTISRDNAKNTVYLQMNSLKPEDTAVYYCNAESRHVFEDEYWGQGTQVTVSS” the “polyreactivity (PSR sort gate)” value was “low polyreactivity”.
With “QVQLVESGGGLVQAGGSLRLSCAASGFTFSLYGMGWYRQAPGKERELVAAIRSGGSRNYADSVKGRFTISRDNAKNTVYLQMNSLKPEDTAVYYCATDIHSVHNNRDKHDYDYWGQGTQVTVSS” the “polyreactivity (PSR sort gate)” value was “low polyreactivity”.
For “QVQLVESGGGLVQAGGSLRLSCAASGFTFSLYGMGWYRQAPGKERELVAAIRSGGSTNYADSVKGRFTISRDNAKNTVYLQMNSLKPEDTAVYYCATDIHSVHNNRDKHDYDYWGQGTQVTVSS”, the “polyreactivity (PSR sort gate)” value was “low polyreactivity”.
In the case of “QVQLVESGGGLVQAGGSLRLSCAASGFTFSLYTKGWYRQATGKERELVADISDGGITNYADSVKGRFTISRDNAKNTVYLQMHSLKPEDTAVYYCAADYQFLFFWNLFYEDYDYWGQGTQVTVSS”, the “polyreactivity (PSR sort gate)” value is reported as “high polyreactivity”.
For “QVQLVESGGGLVQAGGSLRLSCAASGFTFSQYVMGWSRQAPGKERELVASITGKGGSTRYADSVKGRFTISRDNAKNTVYLQMNSLKQEDTAVYYCAARYVYFRWGSFDYWGQGTQVTVSS”, the “polyreactivity (PSR sort gate)” value was “high polyreactivity”.
In the case of “QVQLVESGGGLVQAGGSLRLSCAASGFTFSRKAMGWYRQAPGKERELVASITRSGASTYYADSVKGRFTISRDNAKNTVYLQMNSLKPEDTAVYYCNAYYVALPPNMDYWGQGTQVTLSS”, the “polyreactivity (PSR sort gate)” value is reported as “high polyreactivity”.
For “QVQLVESGGGLVQAGGSLRLSCAASGFTFSRNTMGWYRQAPGKARELVARISASGGSTYYADSVKGRFTISRDNAKNTVYLQMNSLKPEDTAVYYCAAVYRRYGGSRYDYWGQGTQVTVSS”, the “polyreactivity (PSR sort gate)” value was “high polyreactivity”.
For “QVQLVESGGGLVQAGGSLRLSCAASGFTFSRNVMGWYRQAPGKERELVADITLSGASTYYADSVKGRFTISRDNAKNTVYLQMNSLKPEDTAVYYCAADPYHWRWGWRLDYWGQGTQVTVSS”, the “polyreactivity (PSR sort gate)” value was “low polyreactivity”.
For “QVQLVESGGGLVQAGGSLRLSCAASGFTFSRYAMGWYIQAPGKERELVAAITRGGSTNYADSVKGRFTISRDNAKNTVYLQMNSLKPEDTAVYYCAVRIRYSTNAYYYWGQGTQVTVSS”, the “polyreactivity (PSR sort gate)” value was “high polyreactivity”.
In the case of “QVQLVESGGGLVQAGGSLRLSCAASGFTFSRYAMGWYRQAPGKERELVAAISYSGGRTYYADSVKGRFTISRDNAKNTVYLQMNSLKPEDTAVYYCNATWQSGHGWGQGTQVTVSS”, the “polyreactivity (PSR sort gate)” value is reported as “high polyreactivity”.
With “QVQLVESGGGLVQAGGSLRLSCAASGFTFSRYTMGWYRQAPGKERELVAAINRRGGSTYYADSVKGRFTISRDNAKNTVYLQMNSLKPEDTAVYYCAAAVYLGRFGVILGYWGQGTQVTVSS” the “polyreactivity (PSR sort gate)” value was “high polyreactivity”.
For “QVQLVESGGGLVQAGGSLRLSCAASGFTFSRYTMGWYRQAPGKERELVAAISFSGVRTYYADSVKGRFTISRDNAKNSVYLQMNSLKPEDTAVYYCNRVSRTRGLNLYDYWGQGTQVTVSS”, the “polyreactivity (PSR sort gate)” value was “high polyreactivity”.
